Results reported in PMC7728236 (PLoS Pathogens, 2020).

Biological target: the molecule itself
Experiment: cryo-EM structure

B1: full-length hemagglutinin (HA) of influenza virus A/Hong Kong/1/1968 (H3N2), trypsin-cleaved into HA1/HA2 (natural protein)
chain 1: not shown
chain 2: not shown
notes: copies: 3 + 3
stoichiometry N: 3
